Data from the supplement of paper PMC7125110.
± gives the standard error. For part of these data: Variants at the floor of the assay were thinned out.

B1: glmS ribozyme (parent)
chain: AUAAAAGCGCCAGAACUACAGAAAUGUAGUUGACGAGGAGGAGGUUUAUCGAAUUUUCGGCGGAUGCCUCCAAA

Legend:
Conditions in all cases: with glucosamine-6-phosphate
[1] = variants of: B1; experiment: kcat; higher = faster cleavage; RNA array
Outline: (§1)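 Ribozyme variants carrying barcodes were transcribed in situ on sequenced MiSeq chips by E. coli RNA polymerase and tracked at 37 °C with a hybridised Cy3 probe. They were exposed to 40 μM to 10 mM glucosamine-6-phosphate in HEPES/KCl/Mg(OAc)2 buffer. kobs came from exponential decay fits of normalised per-tile medians, and kcat and KM from weighted Michaelis–Menten fits.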

[2] = variants of: B1; experiment: KM; higher = weaker cofactor use; RNA array
Outline: as §1

[3] = variants of: B1; experiment: self-cleavage kobs at 40 uM GlcN6P; higher = faster cleavage; RNA array
Outline: as §1

[4] = variants of: B1; experiment: self-cleavage kobs at 160 uM GlcN6P; higher = faster cleavage; RNA array
Outline: as §1

[5] = variants of: B1; experiment: self-cleavage kobs at 640 uM GlcN6P; higher = faster cleavage; RNA array
Outline: as §1

[6] = variants of: B1; experiment: self-cleavage kobs at 2500 uM GlcN6P; higher = faster cleavage; RNA array
Outline: as §1

[7] = variants of: B1; experiment: self-cleavage kobs at 10000 uM GlcN6P; higher = faster cleavage; RNA array
Outline: as §1

Variant | kcat [1] | KM [2] | self-cleavage kobs at 40 uM GlcN6P [3] | self-cleavage kobs at 160 uM GlcN6P [4] | self-cleavage kobs at 640 uM GlcN6P [5] | self-cleavage kobs at 2500 uM GlcN6P [6] | self-cleavage kobs at 10000 uM GlcN6P [7]
A15G U46A | 0.00453 ± 0.00029 s⁻¹ | 1890 ± 170 µM | 9.83e-05 ± 1.5e-05 s⁻¹ | 0.0003 ± 9.6e-05 s⁻¹ | 0.00114 ± 0.00035 s⁻¹ | 0.00258 ± 0.00041 s⁻¹ | 0.00382 ± 0.00063 s⁻¹
C16U A64G | 0.018 ± 0.0074 s⁻¹ | – | 0.000665 ± 7.5e-05 s⁻¹ | 0.00126 ± 0.00023 s⁻¹ | 0.00457 ± 0.00072 s⁻¹ | 0.0111 ± 0.0028 s⁻¹ | 0.0176 ± 0.0031 s⁻¹
A15U G44U U47G C67G | 0.000544 ± 0.00017 s⁻¹ | – | – | – | 0.000193 ± 3.9e-05 s⁻¹ | 0.000563 ± 9.9e-05 s⁻¹ | 0.000418 ± 9.9e-05 s⁻¹
C16U G40C | 0.00242 ± 0.00035 s⁻¹ | 1020 ± 220 µM | 0.00011 ± 1.1e-05 s⁻¹ | 0.000291 ± 3.7e-05 s⁻¹ | 0.000837 ± 8.6e-05 s⁻¹ | 0.00184 ± 0.00021 s⁻¹ | 0.00227 ± 0.00027 s⁻¹
A15U U30C | 0.000145 ± 1.2e-05 s⁻¹ | 2410 ± 450 µM | – | – | 3.48e-05 ± 6.3e-06 s⁻¹ | 6.99e-05 ± 6.6e-06 s⁻¹ | 0.00012 ± 1.1e-05 s⁻¹
C16U | 0.0542 ± 0.005 s⁻¹ | 2230 ± 230 µM | 0.000969 ± 1.7e-05 s⁻¹ | 0.00308 ± 0.0002 s⁻¹ | 0.0121 ± 0.00055 s⁻¹ | 0.0272 ± 0.0015 s⁻¹ | 0.0458 ± 0.0022 s⁻¹
C16G | 0.0106 ± 0.0035 s⁻¹ | 2880 ± 1100 µM | 0.000174 ± 3.5e-06 s⁻¹ | 0.000423 ± 1.5e-05 s⁻¹ | 0.00182 ± 8.5e-05 s⁻¹ | 0.01 ± 0.0036 s⁻¹ | 0.0085 ± 0.0003 s⁻¹
C16A | 0.00334 ± 0.00087 s⁻¹ | 2630 ± 840 µM | 6.14e-05 ± 1.3e-06 s⁻¹ | 0.000152 ± 5e-06 s⁻¹ | 0.000602 ± 3.1e-05 s⁻¹ | 0.0017 ± 7.8e-05 s⁻¹ | 0.00269 ± 8.5e-05 s⁻¹
C16G U56C | 0.000431 ± 6.4e-05 s⁻¹ | – | – | – | – | 0.000276 ± 4.5e-05 s⁻¹ | 0.000354 ± 3.8e-05 s⁻¹
A15G G29U C50G | 3.72e-05 ± 6.3e-06 s⁻¹ | – | – | – | – | 5.06e-05 ± 2.4e-05 s⁻¹ | –
C16G A53C | 0.000746 ± 0.0001 s⁻¹ | 1750 ± 490 µM | – | 4.82e-05 ± 2.3e-05 s⁻¹ | 0.000233 ± 6.3e-05 s⁻¹ | 0.000524 ± 0.00012 s⁻¹ | 0.000599 ± 0.0001 s⁻¹
C16G C58G | 6.23e-05 ± 1.2e-05 s⁻¹ | – | < 1e-05 s⁻¹ | – | – | 7.72e-05 ± 1.5e-05 s⁻¹ | 5.56e-05 ± 8.3e-06 s⁻¹
A15U G66A | 0.00705 ± 0.002 s⁻¹ | 7800 ± 2800 µM | 4.82e-05 ± 1.6e-05 s⁻¹ | 0.000124 ± 2.4e-05 s⁻¹ | 0.000781 ± 0.00023 s⁻¹ | 0.00183 ± 0.00057 s⁻¹ | 0.00391 ± 0.00065 s⁻¹
C16A G32A | 0.0012 ± 0.00043 s⁻¹ | – | – | – | 0.000229 ± 0.00011 s⁻¹ | – | 0.000787 ± 0.00012 s⁻¹
